The record followed here is IntAct's records for PubMed 19513235.

First the molecules themselves.
B1: Mitogen-activated protein kinase kinase 2 (Arabidopsis thaliana (Mouse-ear cress)), Q9S7U9 (parent)
chain: MKKGGFSNNLKLAIPVAGEQSITKFLTQSGTFKDGDLRVNKDGVRIISQLEPEVLSPIKPADDQLSLSDLDMVKVIGKGSSGVVQLVQHKWTGQFFALKVIQLNIDEAIRKAIAQELKINQSSQCPNLVTSYQSFYDNGAISLILEYMDGGSLADFLKSVKAIPDSYLSAIFRQVLQGLIYLHHDRHIIHRDLKPSNLLINHRGEVKITDFGVSTVMTNTAGLANTFVGTYNYMSPERIVGNKYGNKSDIWSLGLVVLECATGKFPYAPPNQEETWTSVFELMEAIVDQPPPALPSGNFSPELSSFISTCLQKDPNSRSSAKELMEHPFLNKYDYSGINLASYFTDAGSPLATLGNLSGTFSV
partner: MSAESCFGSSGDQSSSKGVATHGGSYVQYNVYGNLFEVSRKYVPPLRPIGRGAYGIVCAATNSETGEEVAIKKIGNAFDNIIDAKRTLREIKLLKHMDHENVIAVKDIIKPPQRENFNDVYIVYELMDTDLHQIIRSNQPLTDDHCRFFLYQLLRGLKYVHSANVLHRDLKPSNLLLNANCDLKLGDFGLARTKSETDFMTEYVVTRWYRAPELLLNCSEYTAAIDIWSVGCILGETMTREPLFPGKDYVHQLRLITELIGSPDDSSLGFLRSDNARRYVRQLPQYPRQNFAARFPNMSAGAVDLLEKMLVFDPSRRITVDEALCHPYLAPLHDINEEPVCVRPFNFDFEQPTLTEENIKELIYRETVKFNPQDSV
B2: Mitogen-activated protein kinase kinase 1 (Arabidopsis thaliana (Mouse-ear cress)), Q94A06 (parent)
chain: MNRGSLCPNPICLPPLEQSISKFLTQSGTFKDGDLRVNKDGIQTVSLSEPGAPPPIEPLDNQLSLADLEVIKVIGKGSSGNVQLVKHKLTQQFFALKVIQLNTEESTCRAISQELRINLSSQCPYLVSCYQSFYHNGLVSIILEFMDGGSLADLLKKVGKVPENMLSAICKRVLRGLCYIHHERRIIHRDLKPSNLLINHRGEVKITDFGVSKILTSTSSLANSFVGTYPYMSPERISGSLYSNKSDIWSLGLVLLECATGKFPYTPPEHKKGWSSVYELVDAIVENPPPCAPSNLFSPEFCSFISQCVQKDPRDRKSAKELLEHKFVKMFEDSDTNLSAYFTDAGSLIPPLAN
partner: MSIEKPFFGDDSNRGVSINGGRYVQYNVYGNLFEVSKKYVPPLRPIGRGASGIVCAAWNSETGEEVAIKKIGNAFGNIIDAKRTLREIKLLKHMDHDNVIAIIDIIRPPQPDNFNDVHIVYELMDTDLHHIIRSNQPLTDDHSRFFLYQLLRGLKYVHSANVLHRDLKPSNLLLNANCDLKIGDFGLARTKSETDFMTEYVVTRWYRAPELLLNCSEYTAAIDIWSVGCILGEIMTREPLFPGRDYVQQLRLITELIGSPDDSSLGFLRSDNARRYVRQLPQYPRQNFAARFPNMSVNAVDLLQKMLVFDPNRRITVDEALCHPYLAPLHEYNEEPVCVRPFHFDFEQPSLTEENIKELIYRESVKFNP
B3: Mitogen-activated protein kinase kinase 2 (Arabidopsis thaliana (Mouse-ear cress)), Q9S7U9 (parent)
chain: B1 chain
partner: B2 partner
B4: Mitogen-activated protein kinase kinase 9 (Arabidopsis thaliana (Mouse-ear cress)), Q9FX43 (parent)
chain: MALVRERRQLNLRLPLPPISDRRFSTSSSSATTTTVAGCNGISACDLEKLNVLGCGNGGIVYKVRHKTTSEIYALKTVNGDMDPIFTRQLMREMEILRRTDSPYVVKCHGIFEKPVVGEVSILMEYMDGGTLESLRGGVTEQKLAGFAKQILKGLSYLHALKIVHRDIKPANLLLNSKNEVKIADFGVSKILVRSLDSCNSYVGTCAYMSPERFDSESSGGSSDIYAGDIWSFGLMMLELLVGHFPLLPPGQRPDWATLMCAVCFGEPPRAPEGCSEEFRSFVECCLRKDSSKRWTAPQLLAHPFLREDL

Variants of B1 are the subject of the first experiment. Conditions: with mpk4_arath MPK4, Q39024.
Turning to MKKGGFSNNLKLAIPVAGEQSITKFLTQSGTFKDGDLRVNKDGVRIISQLEPEVLSPIKPADDQLSLSDLDMVKVIGKGSSGVVQLVQHKWTGQFFALKVIQLNIDEAIRKAIAQELKINQSSQCPNLVTSYQSFYDNGAISLILEYMDGGSLADFLKSVKAIPDSYLSAIFRQVLQGLIYLHHDRHIIHRDLKPSNLLINHRGEVKITDFGVSTVMTNDAGLANTFVGTYNYMSPERIVGNKYGNKSDIWSLGLVVLECATGKFPYAPPNQEETWTSVFELMEAIVDQPPPALPSGNFSPELSSFISTCLQKDPNSRSSAKELMEHPFLNKYDYSGINLASYFTDAGSPLATLGNLSGTFSV [T220D], the “effect of a mutation on the interaction” value was “increasing interaction”.
On to MKKGGFSNNLKLAIPVAGEQSITKFLTQSGTFKDGDLRVNKDGVRIISQLEPEVLSPIKPADDQLSLSDLDMVKVIGKGSSGVVQLVQHKWTGQFFALKVIQLNIDEAIRKAIAQELKINQSSQCPNLVTSYQSFYDNGAISLILEYMDGGSLADFLKSVKAIPDSYLSAIFRQVLQGLIYLHHDRHIIHRDLKPSNLLINHRGEVKITDFGVSTVMTNTAGLANEFVGTYNYMSPERIVGNKYGNKSDIWSLGLVVLECATGKFPYAPPNQEETWTSVFELMEAIVDQPPPALPSGNFSPELSSFISTCLQKDPNSRSSAKELMEHPFLNKYDYSGINLASYFTDAGSPLATLGNLSGTFSV [T226E], for which the “effect of a mutation on the interaction” value is “increasing interaction”.

A further experiment covers variants of B2. Conditions: with mpk11_arath MPK11, Q9LMM5.
For the variant MNRGSLCPNPICLPPLEQSISKFLTQSGTFKDGDLRVNKDGIQTVSLSEPGAPPPIEPLDNQLSLADLEVIKVIGKGSSGNVQLVKHKLTQQFFALKVIQLNTEESTCRAISQELRINLSSQCPYLVSCYQSFYHNGLVSIILEFMDGGSLADLLKKVGKVPENMLSAICKRVLRGLCYIHHERRIIHRDLKPSNLLINHRGEVKITDFGVSKILTSESSLANSFVGTYPYMSPERISGSLYSNKSDIWSLGLVLLECATGKFPYTPPEHKKGWSSVYELVDAIVENPPPCAPSNLFSPEFCSFISQCVQKDPRDRKSAKELLEHKFVKMFEDSDTNLSAYFTDAGSLIPPLAN [T218E], the “effect of a mutation on the interaction” value is on record as “increasing interaction”.
The same measure, in the same setting: the same measure for MNRGSLCPNPICLPPLEQSISKFLTQSGTFKDGDLRVNKDGIQTVSLSEPGAPPPIEPLDNQLSLADLEVIKVIGKGSSGNVQLVKHKLTQQFFALKVIQLNTEESTCRAISQELRINLSSQCPYLVSCYQSFYHNGLVSIILEFMDGGSLADLLKKVGKVPENMLSAICKRVLRGLCYIHHERRIIHRDLKPSNLLINHRGEVKITDFGVSKILTSTSSLANDFVGTYPYMSPERISGSLYSNKSDIWSLGLVLLECATGKFPYTPPEHKKGWSSVYELVDAIVENPPPCAPSNLFSPEFCSFISQCVQKDPRDRKSAKELLEHKFVKMFEDSDTNLSAYFTDAGSLIPPLAN [S224D]: “increasing interaction”.

Variants of B3 are the subject of a further experiment. The following applies: with mpk11_arath MPK11, Q9LMM5.
As for MKKGGFSNNLKLAIPVAGEQSITKFLTQSGTFKDGDLRVNKDGVRIISQLEPEVLSPIKPADDQLSLSDLDMVKVIGKGSSGVVQLVQHKWTGQFFALKVIQLNIDEAIRKAIAQELKINQSSQCPNLVTSYQSFYDNGAISLILEYMDGGSLADFLKSVKAIPDSYLSAIFRQVLQGLIYLHHDRHIIHRDLKPSNLLINHRGEVKITDFGVSTVMTNTAGLANEFVGTYNYMSPERIVGNKYGNKSDIWSLGLVVLECATGKFPYAPPNQEETWTSVFELMEAIVDQPPPALPSGNFSPELSSFISTCLQKDPNSRSSAKELMEHPFLNKYDYSGINLASYFTDAGSPLATLGNLSGTFSV [T226E], the “effect of a mutation on the interaction” value is “increasing interaction”.
Take MKKGGFSNNLKLAIPVAGEQSITKFLTQSGTFKDGDLRVNKDGVRIISQLEPEVLSPIKPADDQLSLSDLDMVKVIGKGSSGVVQLVQHKWTGQFFALKVIQLNIDEAIRKAIAQELKINQSSQCPNLVTSYQSFYDNGAISLILEYMDGGSLADFLKSVKAIPDSYLSAIFRQVLQGLIYLHHDRHIIHRDLKPSNLLINHRGEVKITDFGVSTVMTNDAGLANTFVGTYNYMSPERIVGNKYGNKSDIWSLGLVVLECATGKFPYAPPNQEETWTSVFELMEAIVDQPPPALPSGNFSPELSSFISTCLQKDPNSRSSAKELMEHPFLNKYDYSGINLASYFTDAGSPLATLGNLSGTFSV [T220D]: the “effect of a mutation on the interaction” value is on record as “increasing interaction”.

The variants in a further experiment derive from B4. Conditions: with mpk6_arath MPK6, Q39026.
Chain of mpk6_arath MPK6, Q39026 (Q39026 whole entry): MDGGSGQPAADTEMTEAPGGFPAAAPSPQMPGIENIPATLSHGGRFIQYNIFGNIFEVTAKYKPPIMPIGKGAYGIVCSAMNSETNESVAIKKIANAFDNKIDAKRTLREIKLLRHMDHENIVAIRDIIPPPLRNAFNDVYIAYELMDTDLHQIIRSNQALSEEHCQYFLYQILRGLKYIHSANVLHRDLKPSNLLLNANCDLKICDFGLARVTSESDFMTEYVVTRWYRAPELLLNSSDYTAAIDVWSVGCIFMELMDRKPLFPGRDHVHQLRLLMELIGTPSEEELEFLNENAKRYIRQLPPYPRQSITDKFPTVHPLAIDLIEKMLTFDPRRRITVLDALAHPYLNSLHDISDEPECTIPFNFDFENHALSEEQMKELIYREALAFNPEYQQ
For the variant MALVRERRQLNLRLPLPPISDRRFSTSSSSATTTTVAGCNGISACDLEKLNVLGCGNGGIVYKVRHKTTSEIYALKTVNGDMDPIFTRQLMREMEILRRTDSPYVVKCHGIFEKPVVGEVSILMEYMDGGTLESLRGGVTEQKLAGFAKQILKGLSYLHALKIVHRDIKPANLLLNSKNEVKIADFGVSKILVRELDSCNSYVGTCAYMSPERFDSESSGGSSDIYAGDIWSFGLMMLELLVGHFPLLPPGQRPDWATLMCAVCFGEPPRAPEGCSEEFRSFVECCLRKDSSKRWTAPQLLAHPFLREDL [S195E], the “effect of a mutation on the interaction” value is “increasing interaction”.

In a further experiment the parent is B4. Conditions: with mpk10_arath MPK10, Q9M1Z5.
Chain of mpk10_arath MPK10, Q9M1Z5 (Q9M1Z5 whole entry): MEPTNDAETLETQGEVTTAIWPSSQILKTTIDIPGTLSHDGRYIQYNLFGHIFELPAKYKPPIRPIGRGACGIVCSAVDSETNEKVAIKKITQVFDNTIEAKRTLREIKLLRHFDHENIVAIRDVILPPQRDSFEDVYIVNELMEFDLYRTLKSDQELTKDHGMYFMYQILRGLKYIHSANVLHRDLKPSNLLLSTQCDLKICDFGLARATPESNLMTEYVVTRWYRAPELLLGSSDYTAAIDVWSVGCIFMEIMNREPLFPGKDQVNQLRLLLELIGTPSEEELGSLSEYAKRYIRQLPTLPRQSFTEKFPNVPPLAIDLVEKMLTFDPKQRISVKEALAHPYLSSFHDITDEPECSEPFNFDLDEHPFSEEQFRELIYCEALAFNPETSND
Regarding MALVRERRQLNLRLPLPPISDRRFSTSSSSATTTTVAGCNGISACDLEKLNVLGCGNGGIVYKVRHKTTSEIYALKTVNGDMDPIFTRQLMREMEILRRTDSPYVVKCHGIFEKPVVGEVSILMEYMDGGTLESLRGGVTEQKLAGFAKQILKGLSYLHALKIVHRDIKPANLLLNSKNEVKIADFGVSKILVRELDSCNSYVGTCAYMSPERFDSESSGGSSDIYAGDIWSFGLMMLELLVGHFPLLPPGQRPDWATLMCAVCFGEPPRAPEGCSEEFRSFVECCLRKDSSKRWTAPQLLAHPFLREDL [S195E], the “effect of a mutation on the interaction” value is “increasing interaction”.
